Assay results published in US7166454 (dated 2007).
Where no end group is shown, it is not given here.

Biological target: T1, refolded processed β-secretase (BACE) (human, UniProt P56817 43-454, limits assumed)
T1 construct: The processed preparation is an equimolar mixture of two species, LRLPRE; It is C-terminally truncated and lacks the transmembrane domain; It is not glycosylated; also called mamapsin 2
Assay: X-ray structure coordinates of the complex

T1 sequence (P56817 43-454 limits assumed): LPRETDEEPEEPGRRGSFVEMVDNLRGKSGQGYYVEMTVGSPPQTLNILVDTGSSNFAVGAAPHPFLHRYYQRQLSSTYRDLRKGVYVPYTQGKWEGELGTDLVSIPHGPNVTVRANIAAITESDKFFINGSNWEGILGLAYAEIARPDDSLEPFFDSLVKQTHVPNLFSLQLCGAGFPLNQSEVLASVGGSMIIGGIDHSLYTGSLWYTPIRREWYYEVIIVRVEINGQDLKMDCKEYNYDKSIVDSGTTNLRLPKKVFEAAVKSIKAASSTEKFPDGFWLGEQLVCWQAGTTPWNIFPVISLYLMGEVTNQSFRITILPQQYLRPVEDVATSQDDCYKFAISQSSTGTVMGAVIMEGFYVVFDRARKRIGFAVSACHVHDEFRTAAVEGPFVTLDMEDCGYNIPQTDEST

binding result: binds
B1: OM-99-2 (peptide)
peptide: EVNLAAEF
modifications: also: L4-A5 as hydroxyethylene isostere (2R,4S,5S)-5-amino-4-hydroxy-2,7-dimethyl-octanoyl
notes: also called Bachem catalog # H-5108
